Usually Kd stands for the equilibrium constant for the complex coming apart. High values mean lower affinity, low ones higher affinity.

The assay has as its target FtsZ from Synechococcus 7942 (Synechococcus 7942). Put plainly: MST.

As for Microcystin-LR (peptide), the Kd came out at 1120 nM.
